This data set concerns the molecule itself. Nature of the data set: SEC; size exclusion HPLC on TSKgel G3000SW; 20 uL purified GAD injected; isocratic elution at 1 mL/min for 30 min; 0.1 M sodium sulfate in 0.1 M phosphate buffer, pH 6.8; mix of monomer, dimer and tetramer. (In general: SEC sorts molecules by how far they enter the pores of the column.)

Several values for one entry are separate records, joined by “and”; a condition that tells them apart may be missing. Identical values can stand only once.

The term stoichiometry N denotes the number of molecules, sites or subunits per partner or assembly.

B1: Escherichia coli glutamate decarboxylase fused to six histidine at its C-terminus (enzyme, E. coli, UniProt P69910 1-466, looked up)
chain: MDKKQVTDLRSELLDSRFGAKSISTIAESKRFPLHEMRDDVAFQIINDELYLDGNARQNLATFCQTWDDENVHKLMDLSINKNWIDKEEYPQSAAIDLRCVNMVADLWHAPAPKNGQAVGTNTIGSSEACMLGGMAMKWRWRKRMEAAGKPTDKPNLVCGPVQICWHKFARYWDVELREIPMRPGQLFMDPKRMIEACDENTIGVVPTFGVTYTGNYEFPQPLHDALDKFQADTGIDIDMHIDAASGGFLAPFVAPDIVWDFRLPRVKSISASGHKFGLAPLGCGWVIWRDEEALPQELVFNVDYLGGQIGTFAINFSRPAGQVIAQYYEFLRLGREGYTKVQNASYQVAAYLADEIAKLGPYEFICTGRPDEGIPAVCFKLKDGEDPGYTLYDLSERLRLRGWQVPAFTLGGEATDIVVMRIMCRRGFEMDFAELLLEDYKASLKYLSDHPKLQGIAQQNSFKHT
notes: glutamate decarboxylase (GAD, EC 4.1.1.15) of E. coli, gene amplified from genomic DNA (GenBank M84025); The reverse primer puts an XhoI site (CTCGAG, would encode Leu-Glu) between the last GAD codon and the six histidines; this is my reading of the primer; also called GAD; EGAD; source: E. coli BL21 (DE3), purified (HisTrap HP, buffer exchange on Sephadex G-25); not shown: His6, C-terminal, kept
Consider B1, for which the “stoichiometry N” value was 2 and 4.

Values taken from publication PMC3565344, “Gamma-Aminobutyric Acid Production Using Immobilized Glutamate Decarboxylase Followed by Downstream Processing with Cation Exchange Chromatography” (International Journal of Molecular Sciences, 2013).
